# Source: PMC8249388
# Columns and labels:
# GST-Bicc1-KH [1] = target: T1, GST-Bicc1-KH (UniProt Q99MQ1); test: competition EMSA; conditions: 200 nM protein, 10 mM Tris-HCl pH 8, 100 mM KCl, 2.5 mM MgCl2, 2.5% glycerol, 1 mM DTT, 1 ug yeast tRNA in 20 uL, on ice 30 min, 1 pmol tagged RNA + 2.5 pmol DNA probe, 5% …
# T1 sequence (Q99MQ1 whole entry, looked up): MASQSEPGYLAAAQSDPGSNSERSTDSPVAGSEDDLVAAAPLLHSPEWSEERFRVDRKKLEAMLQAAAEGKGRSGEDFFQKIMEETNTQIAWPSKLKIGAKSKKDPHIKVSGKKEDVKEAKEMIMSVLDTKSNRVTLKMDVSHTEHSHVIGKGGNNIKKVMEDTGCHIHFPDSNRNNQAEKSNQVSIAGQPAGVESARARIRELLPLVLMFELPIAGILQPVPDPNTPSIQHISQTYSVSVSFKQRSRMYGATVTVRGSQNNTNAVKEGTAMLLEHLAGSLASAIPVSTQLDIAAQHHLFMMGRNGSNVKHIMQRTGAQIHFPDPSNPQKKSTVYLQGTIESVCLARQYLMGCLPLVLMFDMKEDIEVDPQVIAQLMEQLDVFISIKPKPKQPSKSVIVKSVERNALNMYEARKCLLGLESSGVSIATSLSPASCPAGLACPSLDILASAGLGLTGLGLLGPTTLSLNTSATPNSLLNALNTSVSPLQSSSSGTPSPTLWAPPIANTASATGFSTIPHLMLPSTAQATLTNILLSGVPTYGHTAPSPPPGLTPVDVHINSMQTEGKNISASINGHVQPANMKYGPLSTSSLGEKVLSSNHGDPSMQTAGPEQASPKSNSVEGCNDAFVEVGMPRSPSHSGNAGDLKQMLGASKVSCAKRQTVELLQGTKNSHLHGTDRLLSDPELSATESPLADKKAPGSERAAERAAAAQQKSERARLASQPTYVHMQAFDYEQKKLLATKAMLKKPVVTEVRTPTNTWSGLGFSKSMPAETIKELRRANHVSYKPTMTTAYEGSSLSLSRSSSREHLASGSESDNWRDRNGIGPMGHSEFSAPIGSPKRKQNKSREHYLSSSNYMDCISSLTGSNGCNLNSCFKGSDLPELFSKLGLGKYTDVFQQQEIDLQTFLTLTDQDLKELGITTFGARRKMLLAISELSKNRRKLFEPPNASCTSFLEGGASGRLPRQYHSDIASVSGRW
# GST-Bicc1-KH [2] = target: T1, GST-Bicc1-KH; test: EMSA; conditions: RNP1; apparent Kd; yeast tRNA present; 10 mM Tris-HCl pH 8, 100 mM KCl, 2.5 mM MgCl2, 2.5% glycerol, 1 mM DTT, 1 ug yeast tRNA in 20 uL, on ice 30 min; 1 pmol tagged RNA + 2.5 pmol DNA probe; 5% …
sequence,measurement,setting,value
GCUGAGCAUCCUAGAGGAAUGCGCAGGACAUGAAUGAACCUUGGCAAGAAGCAGGAGACGCAAUAGAAAGACGUGACCUGAAUGAUGUGCAUCGGGUCAAGAGAGCAGAAUUGGACAGGGCCAGAAUACUAGACAUGGUCCCCCAGUCAUGGGUUUAGACCACUAAUAGUCGUAGAAUGUGGGGCUAGGGUAUAACUCAGUGGGAGAGGGCUUGCCUAGCAUGCA [Dand5 3'-UTR 1-225 competitor],IC50,GST-Bicc1-KH [1]; vs labelled 1-225,283 nM
UGAAGACGUGACUUCUAUUCGUAUGUGAUAUGUGGAGGUUAAAAA [226-270 8-mer (GCCCUGGG to GACGUGAC)],IC50,GST-Bicc1-KH [1]; vs labelled 66-110,392 nM
GCUGAGCAUCCUAGAGGAAUGCGCAGGACAUGAAUGAACCUUGGCAAGAAGCAGGAGACGCAAUAGAAAGACGUGACCUGAAUGAUGUGCAUCGGGUCAAGAGAGCAGAAUUGGACAGGGCCAGAAUACUAGACAUGGUCCCCCAGUCAUGGGUUUAGACCACUAAUAGUCGUAGAAUGUGGGGCUAGGGUAUAACUCAGUGGGAGAGGGCUUGCCUAGCAUGCAUGUCUGGGCAACAGGCUCAGG / CTGAGCCTGTTGCCCAGAC [Dand5 3'-UTR 1-225 probe],Kd,GST-Bicc1-KH [2],233 nM
GAAAGACGUGACCUGAAUGAUGUGCAUCGGGUCAAGAGAGCAGAAUGUCUGGGCAACAGGCUCAGG / CTGAGCCTGTTGCCCAGAC [Dand5 3'-UTR 66-110 probe],Kd,GST-Bicc1-KH [2],120 nM
GAAAGACGUGACCUGAAUGAUGUGCAUCGGGUCACGUCUUUCGAA [66-110 Stem+ (GACG masked in elongated stem)],IC50,GST-Bicc1-KH [1]; vs labelled 66-110,> 1000 nM
UGAACCUUGGCAAGAAGCAGGAGACGCAAUAGAAAGACGUGACCUGAAUGAUGUGCAUCGGGUCAAGAGAGCAGAAUUGGACAGGGCCAGAAUACUAGACAUGGUCCCCCAGUCAUGGGUUUAUGUCUGGGCAACAGGCUCAGG / CTGAGCCTGTTGCCCAGAC [Dand5 3'-UTR 35-157 probe],Kd,GST-Bicc1-KH [2],120 nM
GAAAGACGUGACCUGAAUGAUGUGCAUCGGGUCAAGAGAGCAGAA [Dand5 3'-UTR 66-110 competitor],IC50,GST-Bicc1-KH [1]; vs labelled 66-110,203 nM
GAAAGACGUAAGCUGAAUGAUGUGCAUCGGGUCAAGAGAGCAGAA [66-110 Mut2 (UGAC to UAAG)],IC50,GST-Bicc1-KH [1]; vs labelled 66-110,654 nM
GAAAAAGGUGACCUGAAUGAUGUGCAUCGGGUCAAGAGAGCAGAA [66-110 Mut1 (GACG to AAGG)],IC50,GST-Bicc1-KH [1]; vs labelled 66-110,> 1000 nM
UGAACCUUGGCAAGAAGCAGGAGACGCAAUAGAAAGACGUGACCUGAAUGAUGUGCAUCGGGUCAAGAGAGCAGAAUUGGACAGGGCCAGAAUACUAGACAUGGUCCCCCAGUCAUGGGUUUA [Dand5 3'-UTR 35-157 competitor],IC50,GST-Bicc1-KH [1]; vs labelled 35-157,191 nM
UGAAGCCCUGGGUUCUAUUCGUAUGUGAUAUGUGGAGGUUAAAAAAAGGUGAAAAUUAGCUAUAGUGUAUGAUUAGCCCUGUGUGAGAGGGAACAUUCAUGCCACAAUCACUAACUCACGUCCUCCUCAGGAAUCCUCAGCAGUCCCGCAAGGUAGAAUUUCACCAUGGGUCAUUUUACAGAUGAGGAAACCGAAGCUAU [Dand5 3'-UTR 226-425 (distal) competitor],IC50,GST-Bicc1-KH [1]; vs labelled 1-225,> 1000 nM
